For assay [1], the target named is T1, c-Met-Fc chimera protein (UniProt P08581 25-932, limits assumed).
T1 construct: Captured on the SPR chip by an anti-IgG antibody; not shown: Fc part
The assay is described as follows: SPR presumed (Biacore as in 9-1; method not given), c-Met-Fc on chip. For orientation: SPR reads the build-up and loss of mass on a sensor chip optically.

Assay [2] deals with T1, c-Met-Fc chimera protein. Put plainly: SPR (Biacore), c-Met-Fc captured by anti-IgG on CM5, single-cycle kinetics. How it is done:
(§1) As a sensor chip, Sensor Chip CM5 was used and an anti-IgG antibody was immobilized on a measurement lane and a control lane by using Human Antibody Capture Kit.
(§2) On the measurement lane was immobilized c-Met-Fc, while on the control lane was immobilized Fc protein.
(§3) As a running buffer, HBS-EP+ buffer containing 0.1% DMSO was used and a dissociation constant of the thioether macrocyclic peptide was calculated at 5 different concentrations by using the single-kinetics method.

Assay [3] has as its target T1, c-Met-Fc chimera protein. Put plainly: SPR presumed (Biacore as in 9-1; method not given), c-Met-Fc on chip. This is another data set of the same source.
Assay [4] has as its target T1, c-Met-Fc chimera protein. The assay is described as follows: SPR (Biacore), c-Met-Fc captured by anti-IgG on CM5, single-cycle kinetics. The method, then:
as §1, §2, §3
The source holds these as a separate data set.

Like-named read-outs stand apart in the source and are kept apart here. Bridges are numbered along the chain shown (N, C = ends). Roman numbers before positions name the chains, in order. Primed or numbered codes have the meaning given here. Where no end group is shown, it is not given here. [ ]: non-standard residue; d: D form. NMeW = CN[C@@H](Cc1c[nH]c2ccccc12)C(=O)O; NMeR = CN[C@@H](CCCNC(=N)N)C(=O)O; NMeF = CN[C@@H](Cc1ccccc1)C(=O)O; NMeT = CN[C@H](C(=O)O)[C@@H](C)O; NMeE = CN[C@@H](CCC(=O)O)C(=O)O; NMeQ = CN[C@@H](CCC(N)=O)C(=O)O; NMeD = CN[C@@H](CC(=O)O)C(=O)O; NMeN = CN[C@@H](CC(N)=O)C(=O)O; NMeV = CN[C@H](C(=O)O)C(C)C; NMeC = CN[C@@H](CS)C(=O)O; BMH′ = not defined here

T1 sequence (P08581 25-932 limits assumed, change not shown): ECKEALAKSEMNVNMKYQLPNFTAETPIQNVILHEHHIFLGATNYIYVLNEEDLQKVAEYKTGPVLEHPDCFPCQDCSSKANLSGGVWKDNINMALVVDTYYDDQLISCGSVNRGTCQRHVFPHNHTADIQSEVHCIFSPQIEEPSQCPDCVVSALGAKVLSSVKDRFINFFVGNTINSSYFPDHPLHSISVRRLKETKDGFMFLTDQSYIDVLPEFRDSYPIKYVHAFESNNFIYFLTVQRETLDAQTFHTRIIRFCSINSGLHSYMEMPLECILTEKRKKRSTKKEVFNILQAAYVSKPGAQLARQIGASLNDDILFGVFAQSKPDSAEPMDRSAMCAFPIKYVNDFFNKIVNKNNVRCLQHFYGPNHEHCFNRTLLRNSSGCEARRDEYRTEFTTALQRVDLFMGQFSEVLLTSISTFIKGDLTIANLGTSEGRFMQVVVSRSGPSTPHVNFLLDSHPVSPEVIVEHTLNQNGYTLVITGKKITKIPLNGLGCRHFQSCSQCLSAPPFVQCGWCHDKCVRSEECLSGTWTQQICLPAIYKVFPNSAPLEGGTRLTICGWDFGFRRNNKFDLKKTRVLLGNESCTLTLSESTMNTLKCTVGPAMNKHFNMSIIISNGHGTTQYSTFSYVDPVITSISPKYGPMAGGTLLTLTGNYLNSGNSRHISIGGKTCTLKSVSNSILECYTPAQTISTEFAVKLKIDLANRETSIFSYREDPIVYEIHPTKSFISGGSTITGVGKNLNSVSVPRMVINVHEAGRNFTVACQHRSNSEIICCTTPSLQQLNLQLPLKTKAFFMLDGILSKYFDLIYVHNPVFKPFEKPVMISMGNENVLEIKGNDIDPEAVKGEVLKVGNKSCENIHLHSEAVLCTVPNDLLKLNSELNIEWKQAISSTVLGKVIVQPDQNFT

In the assay with c-Met-Fc chimera protein [1], {CH2CO}-YR[NMeQ]FNRRTHEVWNLDCG (thioether N-16 (inferred)) [N3, N-methylated D4-3 peptide] had an equilibrium dissociation constant (Kd) of 120 nM, a koff of 0.0031 s⁻¹ and a kon of 27000 M⁻¹ s⁻¹.

B1: D4-3 dimeric peptide, linker BMH (peptide)
peptide: {CH2CO}-YRQFNRRTHEVWNLDCGC(BMH′)
modifications: thioether N-16; not fully specified (residue 1); also: dimer: two copies joined by BMH at Cys18
notes: Two macrocyclic peptides joined through their C-terminal Cys by BMH; also called D4-3 BMH
In the assay with c-Met-Fc chimera protein [2], B1 showed a dissociation constant (Kd) of 0.45 nM, a koff of 0.00091 s⁻¹ and an on-rate (kon) of 2e+06 M⁻¹ s⁻¹.

On to {CH2CO}-Y[NMeR]QFNRRTHEVWNLDCG (thioether N-16 (inferred)) [N2, N-methylated D4-3 peptide], for which, in the assay with c-Met-Fc chimera protein [1], the affinity, expressed as Kd, was 14 nM; the koff is 0.01 s⁻¹; the kon came out at 710000 M⁻¹ s⁻¹.

Consider {CH2CO}-YRQFNRRTHEVWNL[NMeD]CG (thioether N-16 (inferred)) [N15, N-methylated D4-3 peptide], for which, in the assay with c-Met-Fc chimera protein [1], binding was put at a Kd of 160 nM, the koff was 0.046 s⁻¹ and the kon came out at 300000 M⁻¹ s⁻¹.

B2: D4-3NMe (peptide)
peptide: {CH2CO}-YRQFN[NMeR]RTHEVWNLD[NMeC]G
modifications: thioether N-16
notes: also called NMe (N6 + N16); N-methylated D4-3
As to B2, in the assay with c-Met-Fc chimera protein [3], binding was put at a Kd of 5.2 nM, the koff was found to be 0.0021 s⁻¹ and the association rate constant (kon) is 390000 M⁻¹ s⁻¹. In the assay with c-Met-Fc chimera protein [2], this molecule came in with a Kd of 5.2 nM, a koff of 0.0021 s⁻¹ and an on-rate (kon) of 390000 M⁻¹ s⁻¹. In the assay with c-Met-Fc chimera protein [4], this molecule came in with a Kd of 5.2 nM, a dissociation rate constant (koff) of 0.0021 s⁻¹ and a kon of 390000 M⁻¹ s⁻¹.

As to {CH2CO}-YRQFNRR[NMeT]HEVWNLDCG (thioether N-16) [D4-3-N8], in the assay with c-Met-Fc chimera protein [1], the Kd was 220 nM, the koff worked out at 0.006 s⁻¹ and the kon worked out at 27000 M⁻¹ s⁻¹.

As for {CH2CO}-YRQFN[NMeR]RTHEVWNLDCG (thioether N-16) [D4-3-N6], in the assay with c-Met-Fc chimera protein [3], the Kd was 34 nM, the koff was 0.0041 s⁻¹ and the kon stood at 120000 M⁻¹ s⁻¹. Besides, in the assay with c-Met-Fc chimera protein [1], the Kd worked out at 34 nM, the koff was 0.0041 s⁻¹ and the kon worked out at 120000 M⁻¹ s⁻¹.

For the molecule {CH2CO}-YRQFNR[NMeR]THEVWNLDCG (thioether N-16) [D4-3-N7], in the assay with c-Met-Fc chimera protein [1], the affinity, expressed as Kd, was 130 nM.

In the assay with c-Met-Fc chimera protein [3], {CH2CO}-YRQFNRRTHEVWNLD[NMeC]G (thioether N-16 (inferred)) [N16, N-methylated D4-3 peptide] came in with a Kd of 10 nM, a koff of 0.01 s⁻¹ and a kon of 980000 M⁻¹ s⁻¹. Also, in the assay with c-Met-Fc chimera protein [1], the dissociation constant Kd was 10 nM, the koff was determined as 0.01 s⁻¹ and the kon amounted to 980000 M⁻¹ s⁻¹.

As to {CH2CO}-YRQF[NMeN]RRTHEVWNLDCG (thioether N-16 (inferred)) [N5, N-methylated D4-3 peptide], in the assay with c-Met-Fc chimera protein [1], binding was put at a Kd of 200 nM, the dissociation rate constant (koff) turned out to be 0.0039 s⁻¹ and the kon came out at 19000 M⁻¹ s⁻¹.

B3: D5-4 dimeric peptide, linker BMH (peptide)
peptide 1: [dY]WYYAWDQTYKAFPCG
peptide 2: [dY]WYYAWDQTYKAFPCG
modifications: thioether I:N-I:15, II:N-II:15 via Ac; not fully specified (N-terminus, bridges); also: dimer: two copies joined by BMH through an added C-terminal Cys (handle not in letters)
notes: Two macrocyclic peptides joined through their C-terminal Cys by BMH; also called D5-4 BMH; not shown: C-terminal handle of each copy (spacer residue plus Cys)
With B3, in the assay with c-Met-Fc chimera protein [2], the affinity, expressed as Kd, was 12 nM; the koff was determined as 0.00055 s⁻¹; the kon came out at 46000 M⁻¹ s⁻¹.

B4: D4-3scr dimeric peptide, linker BMH (peptide)
peptide: {CH2CO}-YERVNHLFRNQTWDRCGC(BMH′)
modifications: thioether N-16; also: dimer: two copies joined by BMH at Cys18
notes: Negative control dimer; also called D4-3scr BMH
On to B4, for which the binding result in the assay with c-Met-Fc chimera protein [2] is “no binding”.

B5: D5-4 dimeric peptide, linker Bis-MAL-PEG3 (peptide)
peptide 1: [dY]WYYAWDQTYKAFPCG
peptide 2: [dY]WYYAWDQTYKAFPCG
modifications: thioether I:N-I:15, II:N-II:15 via Ac; not fully specified (N-terminus, bridges); also: dimer: two copies joined by Bis-MAL-PEG3 through an added C-terminal Cys (handle not in letters)
notes: Two macrocyclic peptides joined through their C-terminal Cys by Bis-MAL-PEG3; also called D5-4 Bis-MAL-PEG3; not shown: C-terminal handle of each copy (spacer residue plus Cys)
As for B5, in the assay with c-Met-Fc chimera protein [2], binding was characterised by a dissociation constant (Kd) of 4.7 nM, the koff turned out to be 0.00054 s⁻¹ and the kon amounted to 120000 M⁻¹ s⁻¹.

In the assay with c-Met-Fc chimera protein [1], {CH2CO}-YRQFNRRTHEVW[NMeN]LDCG (thioether N-16) [N13, N-methylated D4-3 peptide] showed a Kd of 33 nM, a koff of 0.0026 s⁻¹ and a kon of 78000 M⁻¹ s⁻¹.

In the assay with c-Met-Fc chimera protein [1], {CH2CO}-YRQFNRRTH[NMeE]VWNLDCG (thioether N-16) [N10, N-methylated D4-3 peptide] displayed a Kd of 300 nM, a koff of 0.0075 s⁻¹ and a kon of 25000 M⁻¹ s⁻¹.

For the molecule {CH2CO}-YRQ[NMeF]NRRTHEVWNLDCG (thioether N-16 (inferred)) [N4, N-methylated D4-3 peptide], in the assay with c-Met-Fc chimera protein [1], binding was characterised by a dissociation constant (Kd) of 79 nM, the koff was determined as 0.0096 s⁻¹ and the kon is 120000 M⁻¹ s⁻¹.

B6: D4-3scr (peptide)
peptide: {CH2CO}-YERVNHLFRNQTWDRCG
modifications: thioether N-16
notes: Negative control; also called negative control peptide
B6: in the assay with c-Met-Fc chimera protein [4], the binding result was “no binding”.

B7: D4-3 dimeric peptide, linker Bis-MAL-PEG3 (peptide)
peptide: {CH2CO}-YRQFNRRTHEVWNLDCGC(Bis‑MAL‑PEG3)
modifications: thioether N-16; not fully specified (residue 1); also: dimer: two copies joined by Bis-MAL-PEG3 at Cys18
notes: Two macrocyclic peptides joined through their C-terminal Cys by Bis-MAL-PEG3; also called D4-3 Bis-MAL-PEG3
Turning to B7, in the assay with c-Met-Fc chimera protein [2], the affinity, expressed as Kd, was 0.64 nM; the koff came out at 0.0007 s⁻¹; the kon was 1.1e+06 M⁻¹ s⁻¹.

As to {CH2CO}-[dY]WYYAWDQTYKAFPCG (thioether N-15, also called D5-4 peptide; D5-4 Monomer) [D5-4], in the assay with c-Met-Fc chimera protein [2], binding was put at a Kd of 4.6 nM, the koff came out at 0.021 s⁻¹ and the kon was found to be 4.5e+06 M⁻¹ s⁻¹. In the assay with c-Met-Fc chimera protein [4], this molecule came in with a Kd of 4.6 nM, a koff of 0.021 s⁻¹ and a kon of 4.5e+06 M⁻¹ s⁻¹.

B8: D4-3 dimeric peptide, linker Bis-MAL-PEG11 (peptide)
peptide: {CH2CO}-YRQFNRRTHEVWNLDCGC(Bis‑MAL‑PEG11)
modifications: thioether N-16; not fully specified (residue 1); also: dimer: two copies joined by Bis-MAL-PEG11 at Cys18
notes: Two macrocyclic peptides joined through their C-terminal Cys by Bis-MAL-PEG11; also called D4-3 Bis-MAL-PEG11
Turning to B8, in the assay with c-Met-Fc chimera protein [2], binding was characterised by a dissociation constant (Kd) of 0.9 nM, the off-rate (koff) was found to be 0.0011 s⁻¹ and the kon is 1.2e+06 M⁻¹ s⁻¹.

B9: N14, N-methylated D4-3 peptide (peptide)
peptide: {CH2CO}-YRQFNRRTHEVWNLDCG
modifications: thioether N-16; not fully specified (residues 1, 14); also: one N-methylated residue, position given only by label N14
Take B9: in the assay with c-Met-Fc chimera protein [1], the affinity, expressed as Kd, was 290 nM; the koff was 0.0059 s⁻¹; the kon was found to be 21000 M⁻¹ s⁻¹.

Take {CH2CO}-YRQFNRRTHEV[NMeW]NLDCG (thioether N-16) [N12, N-methylated D4-3 peptide]: in the assay with c-Met-Fc chimera protein [1], binding was characterised by a dissociation constant (Kd) of 160 nM, the koff was 0.0086 s⁻¹ and the kon came to 55000 M⁻¹ s⁻¹.

In the assay with c-Met-Fc chimera protein [1], {CH2CO}-YRQFNRRTHE[NMeV]WNLDCG (thioether N-16) [N11, N-methylated D4-3 peptide] showed a Kd of 350 nM, a koff of 0.0051 s⁻¹ and a kon of 15000 M⁻¹ s⁻¹.

B10: D4-3NMe dimeric peptide, linker Bis-MAL-PEG11 (peptide)
peptide: {CH2CO}-YRQFN[NMeR]RTHEVWNLD[NMeC]GC(Bis‑MAL‑PEG11)
modifications: thioether N-16; also: dimer via Bis-MAL-PEG11
notes: also called D4-3NMe Bis-MAL-PEG11; dimerized N-methylated D4-3 peptide
Take B10: in the assay with c-Met-Fc chimera protein [2], the Kd came out at 0.81 nM, the koff stood at 0.0004 s⁻¹ and the kon was 490000 M⁻¹ s⁻¹.

B11: D5-4 dimeric peptide, linker Bis-MAL-PEG11 (peptide)
peptide 1: [dY]WYYAWDQTYKAFPCG
peptide 2: [dY]WYYAWDQTYKAFPCG
modifications: thioether I:N-I:15, II:N-II:15 via Ac; not fully specified (N-terminus, bridges); also: dimer: two copies joined by Bis-MAL-PEG11 through an added C-terminal Cys (handle not in letters)
notes: Two macrocyclic peptides joined through their C-terminal Cys by Bis-MAL-PEG11; also called D5-4 Bis-MAL-PEG11; not shown: C-terminal handle of each copy (spacer residue plus Cys)
With B11, in the assay with c-Met-Fc chimera protein [2], the Kd was 2.1 nM, the koff came to 0.011 s⁻¹ and the kon was 5.3e+06 M⁻¹ s⁻¹.

Consider {CH2CO}-YISWNEFNSPNWRFITCG (thioether N-17, also called L5-2 peptide; L5-2 Monomer) [L5-2], for which, in the assay with c-Met-Fc chimera protein [2], the affinity, expressed as Kd, was 5.4 nM; the koff amounted to 0.012 s⁻¹; the kon is 2.3e+06 M⁻¹ s⁻¹. In the assay with c-Met-Fc chimera protein [4], this molecule yielded a Kd of 5.4 nM, a koff of 0.012 s⁻¹ and a kon of 2.3e+06 M⁻¹ s⁻¹.

As a reminder, the Kd is the constant that tells how readily two partners part at equilibrium. A high value points to a looser complex. The koff is a measure of how fast the partners let go of each other. For orientation: kon means a measure of how fast the partners come together.

The values above are taken from US20160237119A1 (UNIVERSITY OF TOKYO, published 2016).
